For orientation: EC50 means the concentration giving half of the maximal effect.

Numbering of substitutions follows the chain as printed.

Assay [1] has as its target T1, human LILRB1 on cells (human, UniProt Q8NHL6 24-650).
T1 construct: whole, on cells; also called hLILRB1; LILRB1-expressing 721.221 cells
Put plainly: flow cytometry, HEK293-6E transfectants. On the procedure: (§1) To determine that the parent chimera anti LILRB2/1 antibody specifically binds to LILRB2 and LILRB1 and not to other LILRB and LILRA family members, a cross-reactivity assay was performed. Cross-reactivity was assessed by antibody binding to transiently transfected HEK293-6E cells by flow cytometry. Binding was evaluated to HEK293-6E cells transiently transfected with human LILRB-1, -2, -3, -4, and 5 plasmids (Origene, Nos. RC219949, RC217935, RC211228, RC220932, RC206516) or to cells transiently transfected with human LILRA-1, -2, -4, -5, and -6 plasmids (Origene, Nos. RC210808, RC205626, RC220452, RC212310 RC212965). […] At a concentration of 1 μg/mL, no binding of B21A1 or the humanized variants to LILRB-3, -4, or -5 was observed (Table 7). Additionally, no binding to LILRA-1, -2, -4, -5, or -6 was observed, confirming the specificity of B21A1 and its humanized variants to LILRB1 and LILRB2 (Table 8).
In general terms: In flow cytometry, cells or beads pass a laser one at a time.

In assay [2] the target is T2, human LILRB2 on cells (human, UniProt Q8N423 22-597).
T2 construct: whole, on cells; also called hLILRB2; LILRB2-HEK293T
Put plainly: flow cytometry, HEK293-6E transfectants. The procedure:
as §1

Assay [3] deals with T3, human LILRB3 on HEK293-6E cells (human, UniProt O75022 24-631).
T3 construct: whole, on cells; also called hLILRB3
Put plainly: flow cytometry, HEK293-6E transfectants. The procedure:
as §1

Assay [4] addresses T4, human LILRB4 on HEK293-6E cells (human, UniProt Q8NHJ6 22-448).
T4 construct: whole, on cells; also called hLILRB4
Put plainly: flow cytometry, HEK293-6E transfectants. The procedure: as §1

Assay [5] has as its target T5, human LILRB5 on HEK293-6E cells (human, UniProt O75023 24-590).
T5 construct: whole, on cells; also called hLILRB5
Put plainly: flow cytometry, HEK293-6E transfectants. The procedure: as §1

Assay [6] has as its target T6, human LILRA1 on HEK293-6E cells (human, UniProt O75019 17-489).
T6 construct: whole, on cells; also called hLILRA1
Put plainly: flow cytometry, HEK293-6E transfectants. The procedure:
as §1

For assay [7], the target named is T7, human LILRA2 on HEK293-6E cells (human, UniProt Q8N149 24-483).
T7 construct: whole, on cells; also called hLILRA2
Put plainly: flow cytometry, HEK293-6E transfectants. The procedure:
as §1

Assay [8] concerns the target T8, human LILRA4 on HEK293-6E cells (human, UniProt P59901 24-499).
T8 construct: whole, on cells; also called hLILRA4
Put plainly: flow cytometry, HEK293-6E transfectants. The procedure:
as §1

Assay [9] addresses T9, human LILRA5 on HEK293-6E cells (human, UniProt A6NI73 42-299).
T9 construct: whole, on cells; also called hLILRA5
Put plainly: flow cytometry, HEK293-6E transfectants. The procedure:
as §1

Assay [10] has as its target T10, human LILRA6 on HEK293-6E cells (human, UniProt Q6PI73 24-481).
T10 construct: whole, on cells; also called hLILRA6
Put plainly: flow cytometry, HEK293-6E transfectants. The procedure:
as §1

Assay [11] addresses T11, recombinant human LILRB1-His (human, UniProt Q8NHL6 24-458).
T11 construct: Bought protein; also called LILRB1 protein
Put plainly: MSD ELISA, coated antigen, purified IgG1. On the procedure:
(§2) Recombinant human and cynomolgus LILRB1 proteins (R&D Systems, No. 8989-T2-050; ACROBiosystems, No. CDJ-C52H3) and recombinant human and cynomolgus LILRB2 proteins (ACROBiosystems, No. LI2-H5220; No. L12-C52H3) were diluted in PBS to 4 μg/mL and added to a multi-array 384-well high-binding plates (MSD, No. L21XA4) at 10 μL/well and incubated at 4° C. overnight. The plates were washed several times with Wash Buffer (0.05% Tween® 20 in PBS), using a microplate washer and then blocked with 70 μL/well of 5% BSA in PBS for 1 hour (h) at room temperature (RT) with shaking at 700 rpm. After blocking, 20 μL/well of anti-LILRB2/LILRB1 antibodies or isotype control were added to the plates, and the plates were sealed and incubated for 2 h at RT with shaking at 700 rpm. After primary antibody binding, plates were washed five times with 70 μL/well of Wash Buffer (0.05% Tween® 20 in PBS) using a microplate washer. Secondary detection antibody (SULFO-TAG™-labeled goat anti-human IgG antibody (MSD, No. R32AJ-1)) was diluted to 4 μg/mL in assay diluent (1% BSA in PBS) and 10 μL/well was added to plates and incubated at RT protected from light for 1 h, with shaking at 700 rpm. Following incubation, plates were washed five times with Wash Buffer, using a microplate washer. After removal of the final wash, 35 μL/well of MSD Gold Read Buffer B (MSD, No. R60AM-4) was added to all wells using a Multidrop combo washer/dispenser, and plates were read using MESO Sector 600MM instrument (MSD) within 5 minutes (min) after addition of Read Buffer. Signals as counts per minute (cpm) were recorded. EC₅₀ values were calculated using GraphPad Prism based on log concentration of the primary antibodies versus cpm values.
On the technique in general: In an ELISA, binding on a coated surface is turned into a signal by an enzyme label.

In assay [12] the target is T12, recombinant human LILRB2-His (human, UniProt Q8N423 22-461, limits assumed).
T12 construct: Bought protein; also called LILRB2 protein
Put plainly: MSD ELISA, coated antigen, purified IgG1. The procedure: as §2

Assay [13] addresses T13, recombinant cynomolgus LILRB1 (cynomolgus).
T13 construct: Bought protein
Put plainly: MSD ELISA, coated antigen, purified IgG1. On the procedure:
as §2

In assay [14] the target is T2, human LILRB2 on cells. Put plainly: flow cytometry, LILRB2-HEK293T cells, AF647-labelled antibody. On the procedure: (§3) While LILRB2 expression is mostly restricted to myeloid cells, LILRB1 has a broader expression on immune cell subsets, including B cells, T cells and NK cells.
(§4) Frozen cells were removed from storage in vapor phase liquid nitrogen and thawed by gentle swirling in a water bath at 37° C., then resuspended in DMEM media with 10% FBS. Cells were placed in a 15 mL conical tube and centrifuged at 300×g for 5 min, then supernatant was removed. Cells were resuspended in DMEM+10% FBS at a cell density of 2×10⁵ cells/mL in a T75 flask for culturing, and incubated at 37° C., 5% CO₂ for 3 days before passaging. Cells were passaged when the cell density reached 1×10⁶ cell/mL. On the day of the assay, cells were centrifuged, then supernatant was removed. Cells were resuspended in Blocking Buffer B (FACS Buffer containing 10% FBS and 0.5 mg/mL human IgG1 (Athens Research, No. 16-16-090707-1M)+0.05% NaN₃, 5% (w/v)) in a 15 mL conical tube, then incubated at 4° C. for 30 min. […] Cells were incubated with antibodies at 4° C. for 1 h. Cells were washed twice in FACS Buffer (PBS containing 2 mM EDTA+1% FBS+0.05% NaN₃) and then stained with for 10 min with Zombie Violet™ fixable viability dye (BioLegend, No. 423114) at RT, washed with FACS Buffer and resuspend in 75 μL of FACS Buffer for acquisition on a BD FACSymphony™ or BD FACSCanto™ II flow cytometer (BD Biosciences), as described in Example 6.

For assay [15], the target named is T1, human LILRB1 on cells. Put plainly: flow cytometry, 721.221 cells, AF647-labelled antibody. On the procedure:
as §3, §4

T2 sequence (Q8N423 22-597): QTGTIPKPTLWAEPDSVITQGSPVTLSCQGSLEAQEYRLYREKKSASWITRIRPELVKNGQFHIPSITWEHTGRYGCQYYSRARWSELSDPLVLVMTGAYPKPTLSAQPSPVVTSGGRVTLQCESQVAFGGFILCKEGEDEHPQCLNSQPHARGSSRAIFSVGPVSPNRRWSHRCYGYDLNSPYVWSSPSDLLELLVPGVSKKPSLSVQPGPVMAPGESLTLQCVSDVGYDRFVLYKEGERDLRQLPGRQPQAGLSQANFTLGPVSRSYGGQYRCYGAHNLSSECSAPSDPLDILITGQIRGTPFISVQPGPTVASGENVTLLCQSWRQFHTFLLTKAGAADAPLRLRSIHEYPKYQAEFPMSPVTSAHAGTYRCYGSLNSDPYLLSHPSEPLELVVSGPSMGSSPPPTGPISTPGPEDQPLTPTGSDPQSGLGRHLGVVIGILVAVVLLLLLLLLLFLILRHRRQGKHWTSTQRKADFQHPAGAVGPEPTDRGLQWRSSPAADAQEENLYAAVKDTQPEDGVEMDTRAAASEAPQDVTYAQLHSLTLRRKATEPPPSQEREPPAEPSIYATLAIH
T11 sequence (Q8NHL6 24-458 limits assumed): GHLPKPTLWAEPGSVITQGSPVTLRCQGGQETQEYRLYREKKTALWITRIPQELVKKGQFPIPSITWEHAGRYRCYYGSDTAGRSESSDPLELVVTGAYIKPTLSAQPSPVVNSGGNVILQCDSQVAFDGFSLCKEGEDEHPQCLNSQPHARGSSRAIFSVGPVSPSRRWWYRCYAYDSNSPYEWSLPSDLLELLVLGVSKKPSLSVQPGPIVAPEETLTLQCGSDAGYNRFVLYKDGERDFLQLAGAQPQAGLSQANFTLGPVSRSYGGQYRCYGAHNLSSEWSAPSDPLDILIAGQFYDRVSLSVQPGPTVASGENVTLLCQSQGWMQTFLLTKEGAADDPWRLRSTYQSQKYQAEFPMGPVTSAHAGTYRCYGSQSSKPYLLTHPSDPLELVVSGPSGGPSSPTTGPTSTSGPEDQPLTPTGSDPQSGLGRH
T3 sequence (O75022 24-631): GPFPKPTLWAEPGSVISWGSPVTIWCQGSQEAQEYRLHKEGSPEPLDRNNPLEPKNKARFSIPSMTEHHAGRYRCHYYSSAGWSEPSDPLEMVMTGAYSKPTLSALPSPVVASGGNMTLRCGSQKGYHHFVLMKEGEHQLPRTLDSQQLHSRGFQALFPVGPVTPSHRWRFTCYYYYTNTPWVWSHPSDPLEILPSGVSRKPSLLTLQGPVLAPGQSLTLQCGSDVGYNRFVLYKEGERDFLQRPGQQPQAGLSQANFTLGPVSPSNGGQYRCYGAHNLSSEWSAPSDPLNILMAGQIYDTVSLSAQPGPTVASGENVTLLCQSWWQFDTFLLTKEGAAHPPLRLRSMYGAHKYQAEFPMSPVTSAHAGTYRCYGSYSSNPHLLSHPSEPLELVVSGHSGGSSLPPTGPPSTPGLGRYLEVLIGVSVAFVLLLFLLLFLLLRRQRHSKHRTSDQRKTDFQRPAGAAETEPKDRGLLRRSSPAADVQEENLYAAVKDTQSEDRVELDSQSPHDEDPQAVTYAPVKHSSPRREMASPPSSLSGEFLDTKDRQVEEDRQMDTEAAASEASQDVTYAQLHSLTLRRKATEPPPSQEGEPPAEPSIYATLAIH
T1 sequence (Q8NHL6 24-650): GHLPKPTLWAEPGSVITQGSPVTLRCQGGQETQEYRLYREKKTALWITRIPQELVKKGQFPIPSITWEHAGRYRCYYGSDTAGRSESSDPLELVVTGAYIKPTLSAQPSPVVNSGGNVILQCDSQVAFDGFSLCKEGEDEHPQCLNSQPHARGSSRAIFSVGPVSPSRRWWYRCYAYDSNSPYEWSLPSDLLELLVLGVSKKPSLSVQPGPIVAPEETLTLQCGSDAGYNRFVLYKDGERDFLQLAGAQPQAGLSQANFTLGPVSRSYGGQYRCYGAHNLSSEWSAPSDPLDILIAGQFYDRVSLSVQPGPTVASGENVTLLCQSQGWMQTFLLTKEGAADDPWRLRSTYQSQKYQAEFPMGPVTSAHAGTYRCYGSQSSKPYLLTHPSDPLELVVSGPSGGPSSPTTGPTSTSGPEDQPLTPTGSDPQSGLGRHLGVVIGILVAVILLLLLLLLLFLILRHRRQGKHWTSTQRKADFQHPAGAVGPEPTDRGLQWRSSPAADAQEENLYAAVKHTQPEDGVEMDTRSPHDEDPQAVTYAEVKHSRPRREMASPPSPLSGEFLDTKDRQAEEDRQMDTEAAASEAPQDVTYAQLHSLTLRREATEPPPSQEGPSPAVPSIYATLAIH
T8 sequence (P59901 24-499): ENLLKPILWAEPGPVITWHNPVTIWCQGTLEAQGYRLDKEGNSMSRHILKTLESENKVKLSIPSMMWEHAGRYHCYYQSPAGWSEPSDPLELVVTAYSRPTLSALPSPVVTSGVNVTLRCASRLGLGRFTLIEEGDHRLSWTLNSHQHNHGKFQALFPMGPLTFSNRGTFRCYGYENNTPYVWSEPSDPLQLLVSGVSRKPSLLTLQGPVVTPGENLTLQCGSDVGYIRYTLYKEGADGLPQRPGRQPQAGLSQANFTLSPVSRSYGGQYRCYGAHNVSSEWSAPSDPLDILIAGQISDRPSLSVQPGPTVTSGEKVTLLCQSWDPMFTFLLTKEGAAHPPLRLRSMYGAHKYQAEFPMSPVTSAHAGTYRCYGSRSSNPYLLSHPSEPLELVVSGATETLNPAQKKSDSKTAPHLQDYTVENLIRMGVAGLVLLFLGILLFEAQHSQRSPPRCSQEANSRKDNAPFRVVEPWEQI
T6 sequence (O75019 17-489): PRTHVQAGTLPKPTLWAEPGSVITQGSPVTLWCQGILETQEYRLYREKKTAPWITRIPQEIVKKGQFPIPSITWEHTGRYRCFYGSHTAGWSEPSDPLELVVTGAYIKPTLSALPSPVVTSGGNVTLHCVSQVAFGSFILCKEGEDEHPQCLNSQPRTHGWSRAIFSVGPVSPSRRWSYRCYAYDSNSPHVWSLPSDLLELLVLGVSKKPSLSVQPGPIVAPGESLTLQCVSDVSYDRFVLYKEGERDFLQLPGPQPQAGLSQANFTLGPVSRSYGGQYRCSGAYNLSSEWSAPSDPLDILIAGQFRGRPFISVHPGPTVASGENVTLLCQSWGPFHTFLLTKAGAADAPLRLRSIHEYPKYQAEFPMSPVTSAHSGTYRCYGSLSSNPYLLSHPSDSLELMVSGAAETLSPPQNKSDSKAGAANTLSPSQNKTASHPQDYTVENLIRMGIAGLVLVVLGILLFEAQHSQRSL
T9 sequence (A6NI73 42-299): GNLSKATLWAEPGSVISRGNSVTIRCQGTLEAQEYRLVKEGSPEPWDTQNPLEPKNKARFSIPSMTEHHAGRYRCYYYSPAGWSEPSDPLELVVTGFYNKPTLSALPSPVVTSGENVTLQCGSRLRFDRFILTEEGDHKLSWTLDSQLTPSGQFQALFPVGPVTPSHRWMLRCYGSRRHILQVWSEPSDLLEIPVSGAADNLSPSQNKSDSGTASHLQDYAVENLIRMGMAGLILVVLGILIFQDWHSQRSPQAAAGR
T10 sequence (Q6PI73 24-481): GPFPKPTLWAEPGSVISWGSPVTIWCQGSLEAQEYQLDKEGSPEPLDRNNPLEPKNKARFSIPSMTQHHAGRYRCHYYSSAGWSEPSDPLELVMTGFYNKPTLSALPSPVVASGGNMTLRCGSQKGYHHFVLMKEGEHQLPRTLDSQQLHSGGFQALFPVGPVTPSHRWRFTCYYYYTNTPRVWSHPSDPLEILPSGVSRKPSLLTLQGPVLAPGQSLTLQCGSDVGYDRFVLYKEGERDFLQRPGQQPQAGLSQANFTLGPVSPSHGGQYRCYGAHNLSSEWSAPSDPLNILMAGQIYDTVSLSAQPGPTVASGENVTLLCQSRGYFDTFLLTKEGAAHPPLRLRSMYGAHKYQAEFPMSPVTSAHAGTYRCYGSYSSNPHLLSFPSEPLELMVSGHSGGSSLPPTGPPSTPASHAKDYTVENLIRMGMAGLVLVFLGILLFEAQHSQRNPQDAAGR
T7 sequence (Q8N149 24-483): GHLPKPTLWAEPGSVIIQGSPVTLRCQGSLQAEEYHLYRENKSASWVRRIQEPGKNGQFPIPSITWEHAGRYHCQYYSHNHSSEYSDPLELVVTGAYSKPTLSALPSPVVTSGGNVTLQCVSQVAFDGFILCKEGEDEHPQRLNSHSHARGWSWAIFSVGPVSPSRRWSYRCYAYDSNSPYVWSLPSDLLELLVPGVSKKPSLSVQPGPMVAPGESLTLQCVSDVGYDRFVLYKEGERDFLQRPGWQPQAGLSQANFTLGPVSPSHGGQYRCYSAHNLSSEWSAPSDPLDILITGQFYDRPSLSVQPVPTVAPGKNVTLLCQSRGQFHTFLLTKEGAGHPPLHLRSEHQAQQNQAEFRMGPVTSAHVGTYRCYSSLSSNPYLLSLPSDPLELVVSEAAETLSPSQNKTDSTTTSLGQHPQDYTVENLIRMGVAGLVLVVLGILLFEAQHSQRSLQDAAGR
T12 sequence (Q8N423 22-461 limits assumed): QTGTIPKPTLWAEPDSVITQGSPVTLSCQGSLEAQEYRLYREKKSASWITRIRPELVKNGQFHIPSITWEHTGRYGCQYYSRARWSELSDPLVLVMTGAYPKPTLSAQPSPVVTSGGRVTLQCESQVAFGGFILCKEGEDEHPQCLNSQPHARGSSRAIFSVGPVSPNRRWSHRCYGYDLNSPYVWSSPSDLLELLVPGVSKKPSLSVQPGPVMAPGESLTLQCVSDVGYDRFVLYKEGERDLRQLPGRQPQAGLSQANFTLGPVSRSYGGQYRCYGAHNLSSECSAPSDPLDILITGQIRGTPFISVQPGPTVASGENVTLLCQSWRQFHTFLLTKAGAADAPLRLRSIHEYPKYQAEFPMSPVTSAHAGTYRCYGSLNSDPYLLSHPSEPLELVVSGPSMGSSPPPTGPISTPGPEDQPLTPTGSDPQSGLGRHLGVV

B1: B21H1-33 (antibody, human IgG1, kappa)
heavy: not shown
light: DIVMTQSPSSVSASVGDRVTITCQASGNIYSFLAWYQQKPGKAPKLLIYTASNLETGVPSRFSGSGSGTDFTLTISSLQPEDFATYYCLGGLYSSDVSYAFGGGTKVVIKRTVAAPSVFIFPPSDEQLKSGTASVVCLLNNFYPREAKVQWKVDNALQSGNSQESVTEQDSKDSTYSLSSTLTLSKADYEKHKVYACEVTHQGLSSPVTKSFNRGEC
notes: humanized IgG1/kappa, VH3+VL3
In the case of B1, the MFI in the assay with human LILRB1 on cells [1] came out at 860 MFI; with human LILRB2 on cells [2], 6290 MFI; in [3], 89.2 MFI; in assay [4], 27.4 MFI; in [5], 85.8 MFI; in assay [6], 204 MFI. Besides, the MFI in assay [7] was found to be 25.9 MFI; in assay [8], 112 MFI; in assay [9] it was 73.1 MFI; in [10], 140 MFI. The binding result in assay [3], in assay [4], in assay [5], in assay [6], in assay [7] and in [8] was “no binding (tested: 1 µg/mL)” each time. Moreover, the binding result in [9] and in [10] was “no binding (tested: 1 µg/mL)” throughout. Besides, the EC50 in assay [11] was determined as 6.16 ng/mL; in [12], 22.5 ng/mL; in [13] it was 5850 ng/mL; with human LILRB2 on cells [14], 1.44 ng/mL.

B2: B21H1-12 (antibody, human IgG1, kappa)
heavy: not shown
light: B1 light with V3Q, V11L, A43V, F71Y, P80S, F83A
notes: humanized IgG1/kappa, VH1+VL2
With B2, the MFI stood at 963 MFI with human LILRB1 on cells [1]; 6210 MFI in the assay with human LILRB2 on cells [2]; 82.2 MFI in [3]; 27.3 MFI in assay [4]; 87.8 MFI in assay [5]; 276 MFI in [6]. Moreover, the MFI came to 26.6 MFI in [7], 112 MFI in assay [8], 72.8 MFI in assay [9] and 151 MFI in assay [10]. The binding result in [3], in assay [4], in assay [5], in [6], in [7] and in assay [8] was “no binding (tested: 1 µg/mL)” throughout. Moreover, the binding result in assay [9] and in [10] was “no binding (tested: 1 µg/mL)” in each case. Moreover, the EC50 in assay [11] is 6.14 ng/mL; in assay [12], 17.4 ng/mL; with human LILRB1 on cells [15], 41.7 ng/mL; with human LILRB2 on cells [14] it was 1.02 ng/mL.

B3: B21H1-15 (antibody, human IgG1, kappa)
heavy: not shown
light: DIQMTQTPSTVEASVGGTVTITCQASGNIYSFLAWYQQKPGQPPKLLIYTASNLETGVPSRFSGSGSGTEYTLTISGLQSDDAATYYCLGGLYSSDVSYAFGGGTEVVVKRTVAAPSVFIFPPSDEQLKSGTASVVCLLNNFYPREAKVQWKVDNALQSGNSQESVTEQDSKDSTYSLSSTLTLSKADYEKHKVYACEVTHQGLSSPVTKSFNRGEC
notes: humanized IgG1/kappa, VH1+VL5
As for B3, the MFI worked out at 1140 MFI with human LILRB1 on cells [1]; 5700 MFI with human LILRB2 on cells [2]; 98.7 MFI in assay [3]; 29.9 MFI in assay [4]; 93.8 MFI in assay [5]; 290 MFI in [6]. The MFI in assay [7] came to 28.9 MFI; in assay [8], 136 MFI; in [9] it was 77.8 MFI; in [10] it was 147 MFI. Also, the binding result in assay [3], in assay [4], in [5], in [6], in assay [7] and in [8] was “no binding (tested: 1 µg/mL)” throughout. The binding result in assay [9] and in assay [10] was “no binding (tested: 1 µg/mL)” throughout. Besides, the EC50 in assay [11] stood at 5.63 ng/mL; in assay [12] it was 21.6 ng/mL; with human LILRB2 on cells [14] it was 0.96 ng/mL.

Source of the values: patent US20250002577A1 (ONCORESPONSE, published 2025).
